Assay results: US20020137904A1

Molecular target: rabbit anti-CS197 peptide antiserum raised against unconjugated peptide SEQUENCE ID NO 19
Assay: Western blot competition; antiserum pre-incubated overnight with peptide immunogen

concentration of peptide immunogen that inhibited antibody binding to the blot bands: 2.5 FM
Binder: LPGTKAWMETEDTLGRVLSPEPDHDSLYHPPPEED [CS 197 synthetic peptide SEQUENCE ID NO 19]
